From IntAct's records for PubMed 35512704

B1: Mothers against decapentaplegic homolog 4 (Homo sapiens), Q13485 (parent)
chain: MDNMSITNTPTSNDACLSIVHSLMCHRQGGESETFAKRAIESLVKKLKEKKDELDSLITAITTNGAHPSKCVTIQRTLDGRLQVAGRKGFPHVIYARLWRWPDLHKNELKHVKYCQYAFDLKCDSVCVNPYHYERVVSPGIDLSGLTLQSNAPSSMMVKDEYVHDFEGQPSLSTEGHSIQTIQHPPSNRASTETYSTPALLAPSESNATSTANFPNIPVASTSQPASILGGSHSEGLLQIASGPQPGQQQNGFTGQPATYHHNSTTTWTGSRTAPYTPNLPHHQNGHLQHHPPMPPHPGHYWPVHNELAFQPPISNHPAPEYWCSIAYFEMDVQVGETFKVPSSCPIVTVDGYVDPSGGDRFCLGQLSNVHRTEAIERARLHIGKGVQLECKGEGDVWVRCLSDHAVFVQSYYLDREAGRAPGDAVHKIYPSAYIKVFDLRQCHRQMQQQAATAQAAAAAQAAAVAGNIPGPGSVGGIAPAISLSAAAGIGVDDLRRLCILRMSFVKGWGPDYPRQSIKETPCWIEIHLHRALQLLDEVLHTMPIADPQPLD
partner: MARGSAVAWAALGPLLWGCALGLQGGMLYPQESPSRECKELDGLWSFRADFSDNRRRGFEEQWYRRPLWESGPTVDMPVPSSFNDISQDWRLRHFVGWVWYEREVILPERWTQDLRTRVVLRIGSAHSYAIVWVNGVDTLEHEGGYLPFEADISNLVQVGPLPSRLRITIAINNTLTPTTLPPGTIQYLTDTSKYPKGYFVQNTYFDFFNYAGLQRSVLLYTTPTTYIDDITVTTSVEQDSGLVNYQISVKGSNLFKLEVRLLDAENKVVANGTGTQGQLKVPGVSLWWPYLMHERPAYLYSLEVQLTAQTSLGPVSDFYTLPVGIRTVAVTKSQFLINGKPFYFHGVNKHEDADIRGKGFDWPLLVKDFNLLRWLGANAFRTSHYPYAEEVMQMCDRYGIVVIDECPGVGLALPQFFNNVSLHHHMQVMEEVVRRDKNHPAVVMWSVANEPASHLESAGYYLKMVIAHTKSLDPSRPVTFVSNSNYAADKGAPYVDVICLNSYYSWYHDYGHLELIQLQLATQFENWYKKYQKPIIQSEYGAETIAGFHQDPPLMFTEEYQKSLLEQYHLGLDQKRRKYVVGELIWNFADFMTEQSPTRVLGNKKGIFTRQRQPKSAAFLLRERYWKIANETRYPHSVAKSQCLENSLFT
B2: Mothers against decapentaplegic homolog 4 (Homo sapiens), Q13485 (parent)
chain: B1 chain
partner: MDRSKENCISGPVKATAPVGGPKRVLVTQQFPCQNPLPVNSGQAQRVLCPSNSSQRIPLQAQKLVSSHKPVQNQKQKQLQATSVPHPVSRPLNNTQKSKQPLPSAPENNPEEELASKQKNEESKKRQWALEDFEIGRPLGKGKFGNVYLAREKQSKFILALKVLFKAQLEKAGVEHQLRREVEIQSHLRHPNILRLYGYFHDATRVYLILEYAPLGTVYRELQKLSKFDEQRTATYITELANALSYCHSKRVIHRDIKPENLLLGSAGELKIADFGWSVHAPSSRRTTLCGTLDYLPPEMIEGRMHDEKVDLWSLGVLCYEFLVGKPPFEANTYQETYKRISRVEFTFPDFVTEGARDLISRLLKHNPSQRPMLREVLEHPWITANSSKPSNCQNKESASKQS
B3: Mothers against decapentaplegic homolog 4 (Homo sapiens), Q13485 (parent)
chain: B1 chain
partner: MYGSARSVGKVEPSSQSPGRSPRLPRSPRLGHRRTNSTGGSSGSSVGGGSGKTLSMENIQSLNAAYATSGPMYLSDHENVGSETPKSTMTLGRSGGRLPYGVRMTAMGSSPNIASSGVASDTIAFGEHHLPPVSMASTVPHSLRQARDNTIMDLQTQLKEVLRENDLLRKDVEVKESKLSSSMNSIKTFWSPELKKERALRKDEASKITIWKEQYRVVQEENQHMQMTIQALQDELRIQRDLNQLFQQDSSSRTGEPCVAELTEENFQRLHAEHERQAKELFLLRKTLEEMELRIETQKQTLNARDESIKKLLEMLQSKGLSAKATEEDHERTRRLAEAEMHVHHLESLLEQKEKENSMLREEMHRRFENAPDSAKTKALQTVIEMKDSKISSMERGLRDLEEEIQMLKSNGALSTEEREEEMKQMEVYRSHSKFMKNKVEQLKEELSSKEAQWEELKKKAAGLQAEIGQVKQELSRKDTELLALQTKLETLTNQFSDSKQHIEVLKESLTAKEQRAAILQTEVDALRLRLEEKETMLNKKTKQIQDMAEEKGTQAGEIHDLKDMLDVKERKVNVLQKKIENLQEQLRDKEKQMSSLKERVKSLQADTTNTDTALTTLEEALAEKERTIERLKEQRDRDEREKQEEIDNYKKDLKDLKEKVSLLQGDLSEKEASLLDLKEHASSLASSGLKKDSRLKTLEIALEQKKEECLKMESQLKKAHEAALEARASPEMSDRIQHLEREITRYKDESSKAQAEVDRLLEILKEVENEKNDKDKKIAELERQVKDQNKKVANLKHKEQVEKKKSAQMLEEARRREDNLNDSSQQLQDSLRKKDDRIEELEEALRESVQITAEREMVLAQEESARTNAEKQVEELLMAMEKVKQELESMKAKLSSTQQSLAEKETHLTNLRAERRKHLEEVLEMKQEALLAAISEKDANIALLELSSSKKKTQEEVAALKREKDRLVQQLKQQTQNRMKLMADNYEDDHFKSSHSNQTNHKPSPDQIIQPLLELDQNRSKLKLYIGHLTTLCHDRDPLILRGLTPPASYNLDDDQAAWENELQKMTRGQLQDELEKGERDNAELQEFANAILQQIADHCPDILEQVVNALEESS
B4: Mothers against decapentaplegic homolog 4 (Homo sapiens), Q13485 (parent)
chain: B1 chain
partner: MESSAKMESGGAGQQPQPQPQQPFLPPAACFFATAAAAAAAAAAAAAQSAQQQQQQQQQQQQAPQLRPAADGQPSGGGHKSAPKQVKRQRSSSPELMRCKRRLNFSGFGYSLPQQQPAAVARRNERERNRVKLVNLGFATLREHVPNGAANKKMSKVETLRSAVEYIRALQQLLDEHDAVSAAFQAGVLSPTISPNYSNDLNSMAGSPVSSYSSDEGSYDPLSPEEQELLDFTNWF
B5: Mothers against decapentaplegic homolog 4 (Homo sapiens), Q13485 (parent)
chain: B1 chain
partner: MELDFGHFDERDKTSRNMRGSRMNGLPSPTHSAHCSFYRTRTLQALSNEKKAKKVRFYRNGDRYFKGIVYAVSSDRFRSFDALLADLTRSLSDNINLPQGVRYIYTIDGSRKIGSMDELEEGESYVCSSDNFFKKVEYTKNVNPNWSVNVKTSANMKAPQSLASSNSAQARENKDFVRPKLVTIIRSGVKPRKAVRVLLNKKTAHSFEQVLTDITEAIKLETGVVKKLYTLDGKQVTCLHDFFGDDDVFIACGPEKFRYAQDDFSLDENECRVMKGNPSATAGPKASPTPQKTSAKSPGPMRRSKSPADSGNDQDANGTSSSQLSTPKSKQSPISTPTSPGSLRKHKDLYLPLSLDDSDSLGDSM
B6: Mothers against decapentaplegic homolog 4 (Homo sapiens), Q13485 (parent)
chain: B1 chain
partner: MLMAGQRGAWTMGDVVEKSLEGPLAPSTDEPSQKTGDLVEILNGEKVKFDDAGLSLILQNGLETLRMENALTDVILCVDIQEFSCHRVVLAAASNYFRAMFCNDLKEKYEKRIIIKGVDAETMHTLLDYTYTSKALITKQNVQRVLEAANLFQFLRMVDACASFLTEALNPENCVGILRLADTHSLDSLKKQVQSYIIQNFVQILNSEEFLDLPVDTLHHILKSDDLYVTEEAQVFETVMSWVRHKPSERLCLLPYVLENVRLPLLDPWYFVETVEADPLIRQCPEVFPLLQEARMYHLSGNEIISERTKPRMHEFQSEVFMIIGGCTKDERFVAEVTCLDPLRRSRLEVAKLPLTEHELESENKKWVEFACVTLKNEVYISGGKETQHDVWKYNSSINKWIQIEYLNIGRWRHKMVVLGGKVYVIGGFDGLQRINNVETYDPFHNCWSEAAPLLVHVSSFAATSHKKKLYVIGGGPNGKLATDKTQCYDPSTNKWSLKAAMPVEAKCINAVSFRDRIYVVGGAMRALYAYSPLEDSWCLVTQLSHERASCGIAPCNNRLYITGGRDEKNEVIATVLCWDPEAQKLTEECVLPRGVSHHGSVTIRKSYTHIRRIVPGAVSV
B7: Mothers against decapentaplegic homolog 4 (Homo sapiens), Q13485 (parent)
chain: B1 chain
partner: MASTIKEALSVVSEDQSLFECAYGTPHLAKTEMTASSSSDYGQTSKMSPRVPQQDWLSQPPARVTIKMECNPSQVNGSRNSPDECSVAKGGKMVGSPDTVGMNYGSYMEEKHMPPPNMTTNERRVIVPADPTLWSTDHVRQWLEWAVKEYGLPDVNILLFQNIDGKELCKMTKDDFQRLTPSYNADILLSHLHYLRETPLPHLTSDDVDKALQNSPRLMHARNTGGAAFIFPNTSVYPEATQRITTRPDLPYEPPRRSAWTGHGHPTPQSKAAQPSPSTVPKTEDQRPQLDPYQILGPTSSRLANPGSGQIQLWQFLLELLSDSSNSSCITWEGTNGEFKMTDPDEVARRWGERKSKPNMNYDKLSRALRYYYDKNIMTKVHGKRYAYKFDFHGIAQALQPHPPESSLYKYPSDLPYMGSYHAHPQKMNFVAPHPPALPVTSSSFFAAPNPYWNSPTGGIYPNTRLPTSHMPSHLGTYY

Variants of: B1
Conditions: with bglr_human GUSB

Row | effect of a mutation on the interaction | Variant
1 | with no effect | D351H

Variants of: B1
Conditions: with bglr_human GUSB
Remark: another data set of the same source

Row | effect of a mutation on the interaction | Variant
2 | with no effect | G386D

Variants of: B1
Conditions: with bglr_human GUSB
Remark: another data set of the same source

Row | effect of a mutation on the interaction | Variant
3 | with no effect | R361C

Variants of: B1
Conditions: with bglr_human GUSB
Remark: another data set of the same source

Row | effect of a mutation on the interaction | Variant
4 | with no effect | R361H

Variants of: B2
Conditions: with aurka_human AURKA

Row | effect of a mutation on the interaction | Variant
5 | with no effect | R361C

Variants of: B2
Conditions: with aurka_human AURKA
Remark: another data set of the same source

Row | effect of a mutation on the interaction | Variant
6 | with no effect | R361H

Variants of: B2
Conditions: with aurka_human AURKA
Remark: another data set of the same source

Row | effect of a mutation on the interaction | Variant
7 | with no effect | G386D

Variants of: B2
Conditions: with aurka_human AURKA
Remark: another data set of the same source

Row | effect of a mutation on the interaction | Variant
8 | with no effect | D351H

Variants of: B3
Conditions: with rb6i2_human ERC1, Q8IUD2

Row | effect of a mutation on the interaction | Variant
9 | with no effect | D351H

Variants of: B3
Conditions: with rb6i2_human ERC1, Q8IUD2
Remark: another data set of the same source

Row | effect of a mutation on the interaction | Variant
10 | with no effect | G386D

Variants of: B3
Conditions: with rb6i2_human ERC1, Q8IUD2
Remark: another data set of the same source

Row | effect of a mutation on the interaction | Variant
11 | with no effect | R361H

Variants of: B3
Conditions: with rb6i2_human ERC1, Q8IUD2
Remark: another data set of the same source

Row | effect of a mutation on the interaction | Variant
12 | with no effect | R361C

Variants of: B4
Conditions: with ascl1_human ASCL1, P50553

Row | effect of a mutation on the interaction | Variant
13 | with no effect | R361H

Variants of: B4
Conditions: with ascl1_human ASCL1, P50553
Remark: another data set of the same source

Row | effect of a mutation on the interaction | Variant
14 | with no effect | R361C

Variants of: B4
Conditions: with ascl1_human ASCL1, P50553
Remark: another data set of the same source

Row | effect of a mutation on the interaction | Variant
15 | with no effect | G386D

Variants of: B4
Conditions: with ascl1_human ASCL1, P50553
Remark: another data set of the same source

Row | effect of a mutation on the interaction | Variant
16 | with no effect | D351H

Variants of: B5
Conditions: with dcx_human DCX

Row | effect of a mutation on the interaction | Variant
17 | with no effect | G386D

Variants of: B5
Conditions: with dcx_human DCX
Remark: another data set of the same source

Row | effect of a mutation on the interaction | Variant
18 | with no effect | R361H

Variants of: B5
Conditions: with dcx_human DCX
Remark: another data set of the same source

Row | effect of a mutation on the interaction | Variant
19 | with no effect | R361C

Variants of: B5
Conditions: with dcx_human DCX
Remark: another data set of the same source

Row | effect of a mutation on the interaction | Variant
20 | with no effect | D351H

Variants of: B6
Conditions: with klhl6_human KLHL6, Q8WZ60

Row | effect of a mutation on the interaction | Variant
21 | with no effect | G386D

Variants of: B6
Conditions: with klhl6_human KLHL6, Q8WZ60
Remark: another data set of the same source

Row | effect of a mutation on the interaction | Variant
22 | causing an interaction | G386D

Variants of: B6
Conditions: with klhl6_human KLHL6, Q8WZ60
Remark: another data set of the same source

Row | effect of a mutation on the interaction | Variant
23 | with no effect | D351H

Variants of: B7
Conditions: with erg_human ERG

Row | effect of a mutation on the interaction | Variant
24 | with no effect | D351H

Variants of: B7
Conditions: with erg_human ERG
Remark: another data set of the same source

Row | effect of a mutation on the interaction | Variant
25 | with no effect | G386D

Variants of: B7
Conditions: with erg_human ERG
Remark: another data set of the same source

Row | effect of a mutation on the interaction | Variant
26 | with no effect | R361C

Variants of: B7
Conditions: with erg_human ERG
Remark: another data set of the same source

Row | effect of a mutation on the interaction | Variant
27 | with no effect | R361H
